System: Saccharomyces cerevisiae
Assay: transcriptional activation domain activity (GFP:mCherry ratio, weighted mean of sorted bins, harmonized to initial dataset scale) (arbitrary fluorescence ratio units); higher = stronger transcriptional activation
Conditions: beta-estradiol 1 µM; induction time 4 h
Protocol: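 53-aa protein tiles (fungal proteins plus yeast TF control tiles) fused C-terminally to a DBD-estrogen-binding domain-mCherry synthetic TF, integrated in S. cerevisiae (URA3 locus) with a GFP reporter. Cells were induced with 1 uM beta-estradiol for 4 h at 30 C, FACS-sorted into 8 bins by GFP:mCherry ratio and barcodes sequenced. Activity is the read-weighted mean bin fluorescence (GFP:mCherry), averaged over barcodes (median 12); tiles under 50 reads were discarded. New active-learning values were harmonized by linear fit onto the scale of the initial (Hummel et al.) dataset. The assay saturates at low and high signal.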

Sequence	transcriptional activation domain activity
YGVPIPQNSPATTTNLSGSVDEPQYQRRNIDFVRYDEEYVYHEDMDDELTMLH	28400
EMGLSTAPGHQTAEFTITGIGLILKTLWLCADLITFLLSLQRLIFHALVLLFS	64300
RFYVYLLILLGCIIWINQCQYATDRSGYQRGHSAVLRALFYRLCRLLQTAITP	35000
VAPLLLAGACCIAHHFMLVFLEGCTVQSEFWIRNANSAFSLLISALLASCVGT	77100
KFVDLGIFKAEGTRLRCRMCGFLIASLVLCMHMSQACPMYPRYPSSNMHEHPD	29300
SRRPAKKVKEEGEKKAASGDKKGRGKALSEKSKPDAKGSKAKSKHKKDSDSEE	24900
EWVIGWCKQIGLPDGVTEFIGRSYIMTAEAYLDLPMSKQVLVPVVAINTLVFV	34200
DYSIAQFRFLLKLLLVHGRWNYMRACKYTLGTFWKEMLFYLTQALYQRWNGYT	64700
GDQGAGRRDRRRRLGHRGGGEGRGREEGEEGRRDGEGRHRGEGGREEGEEEDR	14300
FWNLFNLVPGIQAQNLHCRYDYYPWGLSAFCQFLPIANAIGLTGSYTGIIYCC	33900
RCANARIVWGARVVGVGGQGEGEAKAWVDVEMAGEEGAKRVERREADFVVGCD	37600
KEEEQKELDRMAREEKKVWGDALRLGRTSWSESVMVWSHVMALRVFVETVLRY	62900
MKGVCLKVGVVRPKKPNSGERKTARVRLSNGRQVTAYISGEGHNIQQHSVVLV	53500
MSPPCIVLKHLLFFLFSFHRILLQPVRRPSCFHISLYVLVVRLYWFRGILDFC	38300
IKIIQLLGTRYLYFMIKELRGALLRGYQMHVLGYTVHAILASIDLNPACLKAC	77200
VEPAPENWRELTQIPAFAGIRSASFVRHTVALVESLLLRAAFVRAVFAELRAC	53700
MILLVSFFFLLLIFFFSIREFRSECIVNDFWSFVYLSAYIVLDVCRIFFFLFW	25600
LDHRVGIEKLYVSLFFLSTALLIIIEQYFPSLKSRGVLNFLWKLLYLPLLRLV	43000
PVAPPAASQPHPTANTMQATHAPPSSGRRRGRPKGSKNKPKPEAPTGPEASAG	6790
MSRVRLAPEGHMFFFVLIVFIFCFFCLFLFLAGDLKGGWLFFLRFGMGWVFLG	21600
LVLQTDFLLMVERVDVCLEFLEAHRDFREVEIYLLRFQQCLTRAMTLIKMFFV	51900
EDEASASTDNDEATTKTEKQPKKKAKAEKVADCEAVVKKKAPAKRQSKKEANQ	41600
MVLLSVLCVLICNYFCLLVFTVAMGMPSGPPVRPLFQVILAHRRYLFSFRTHW	82500
EEPKAEEAAPAAEAPAAEAPAAETPAAEPAAEQPATEEAKPAESAATETKKED	12500
VGLAIYCVSQHLMIPSATELICMYPVVNSTIGLITYYYLIFSFLFGIMIITYC	64600
MFYYYFSPHFYCFMLPLYIFLFLISLFFIYPSKFYFLLIVMGVGFFSLHLCLP	51500
FNIVAFGIIILDFWGMIGIWTQKFGFHHVWEVWLYQVYYGLFVCPWYSYSQIM	80200
MFLLVLYPILHLLFLPCKYQYFQIFIRLLSQLPLLFFFCNTFWFFSTSVFFLN	69600

Sequence	transcriptional activation domain activity
PSEEAAAAAVEEEEDVTQPEKPKDPEPTPVQPKATPAPAPTPAKPAVPKSWAS	37300
TFQHLSRTTYEDFVNTKQFFARVRVLRRLYSCNKQEIWQSLIFSTLACLLDRP	60900
MKPITPKLEEQEPAAYGAAASAATVPTTKRKCVSSACVPCRRRKSKVTPRNPL	34500
SVTSTEELEITVETLRELAAHPAVIKGKQCRELRGAVHEFRQACTTGVNAAGT	53600
IAAAGSNAASGHPDAKRAKTGASGSRAGSPSGSPPGSKPASRAGSPGAPRVPA	16900
VKEGGKDLVQLPKSWVEIDGEILVRAVLLLLHPGATLYGPVPMKIARNWPFAS	60700
MCVHVCLMFCSLLLSLSPFFFFHDLFLFLYTFSFSLSCFTPSYFSMFSSIPSS	76200
AASAEDAVVGEKHKAEEPLDTNGDAKKAKVTNGNGEARKPGRPSKKDKKPQPT	23100
VDASTIARLSSPELGAREQLRQEEERRRKIERRARRRERRERERSSALLHLTG	33400
PKEAVASTPEEPAASEPVAAPALAAAEPVAAAEAPAAAPVPETKAEEVSIQHL	23600
ERDEEEDEDEEEEDEGKRRKRRGARSTAAISKRETGKAKDETREDPESRKKRG	23600
AATNKYDATIQRMLSRSVFVTCNSWYRVGGTGKNTSIFPGPGMLFWWWTRQAR	61100
GAGAGGKVGGGAGAGAGAGAGAGHLGGGAEGGGKIGAGAGGKVGGEIGAGGKI	25000
IDVCLRERDANDYSRQVLGHYWENGIPLSSNRIIHDLLVILRNVIARVITAAK	42300
KHPQNTTTDIENEVENPVTDDNGNLKLELPDNLDNADFSKLLEFDAKNDEALF	33600
LSSFFLGLLHIGFSLVGYLSLLRISPNVFSVLPRDHTWFNISRFLVLCTILPL	59300
NILKLPSMVDGSQHCDISKFIVAAAHKIVTPDVSPRGWVLLKLLRSYIELDMY	29100
LCKAIQFCVFLGFALAGYNFEPWHQLIVYETLCFVLFLSRVLLTIQYAVVLVY	61400
MMFFFFFLVSFIYFWIGAPVGFFILKIKFVMLDVQSLHLAIFLICPHLCFYVM	54400
MFFLSSIFLTLSMTLSPLFLYFNWLVVYGFSSLFFIFSTPTFLPPLCFFQWYC	45200
VIYSHRYVFHKKKGLRHIHVLNGWYVLSRIIAVYVLQDFLGEGSSVVVIAFLR	58700
MYKSYIFFYLPLLFNCFIMSFFFLYEMPFFYLGRMLHFLLSLISGSWFFFYLF	50900
FWVWMMTSPAFPLKLFIPLFHLTILLIPFTSQFFTPALPITSWLICFFSSKFI	49200
MGARYWILECGDWLMAKAVPNSLPIVSFLFLLFFPWPFFVFILYLTLIALYSS	42400
SDDGGSSSEIIRVLGGPSIGDIRSRLIRLMPSAPPNSPLDAICRLLAYRLPVQ	37600
NGLLRDVHVVFQDSSFCARLTEQIRRRLRMISSNWRETCCMEMLITLSLRLFH	45100
AKDEGEEEEDGSTSLNGTGKGTGTGKTHRGARGSKKGKKDGNETTSKAKGDGV	29500

Reference: the supplement of paper PMC12636428
